Measured values as given in patent US20130064834A1 (published 2013).
Positions count from the first letter of the chain named.

T1: Chimeric protein #3 (mPro-mCat-hC-term-mmh) (mouse; human)
T1 chain: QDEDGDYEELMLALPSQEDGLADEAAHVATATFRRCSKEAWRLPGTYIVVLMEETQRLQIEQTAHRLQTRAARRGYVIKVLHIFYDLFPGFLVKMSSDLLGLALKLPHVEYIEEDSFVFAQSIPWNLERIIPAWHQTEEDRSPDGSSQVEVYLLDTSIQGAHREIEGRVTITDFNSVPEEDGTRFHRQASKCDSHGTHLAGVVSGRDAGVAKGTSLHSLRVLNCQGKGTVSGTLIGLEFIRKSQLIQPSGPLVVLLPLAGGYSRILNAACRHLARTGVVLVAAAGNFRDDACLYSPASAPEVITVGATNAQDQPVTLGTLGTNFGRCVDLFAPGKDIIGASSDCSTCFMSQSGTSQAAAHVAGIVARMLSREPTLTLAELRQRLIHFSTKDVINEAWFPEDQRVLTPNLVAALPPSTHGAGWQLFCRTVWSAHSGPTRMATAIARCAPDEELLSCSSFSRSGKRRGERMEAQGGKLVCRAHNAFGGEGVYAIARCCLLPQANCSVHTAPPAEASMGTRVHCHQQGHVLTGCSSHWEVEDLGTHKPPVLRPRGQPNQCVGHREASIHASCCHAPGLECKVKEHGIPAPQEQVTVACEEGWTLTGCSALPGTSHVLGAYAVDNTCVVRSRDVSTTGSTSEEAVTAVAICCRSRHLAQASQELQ

T2: Chimeric protein #1 (mPro-hCat-mC-term-mmh) (mouse; human, UniProt Q80W65 35-694)
T2 chain: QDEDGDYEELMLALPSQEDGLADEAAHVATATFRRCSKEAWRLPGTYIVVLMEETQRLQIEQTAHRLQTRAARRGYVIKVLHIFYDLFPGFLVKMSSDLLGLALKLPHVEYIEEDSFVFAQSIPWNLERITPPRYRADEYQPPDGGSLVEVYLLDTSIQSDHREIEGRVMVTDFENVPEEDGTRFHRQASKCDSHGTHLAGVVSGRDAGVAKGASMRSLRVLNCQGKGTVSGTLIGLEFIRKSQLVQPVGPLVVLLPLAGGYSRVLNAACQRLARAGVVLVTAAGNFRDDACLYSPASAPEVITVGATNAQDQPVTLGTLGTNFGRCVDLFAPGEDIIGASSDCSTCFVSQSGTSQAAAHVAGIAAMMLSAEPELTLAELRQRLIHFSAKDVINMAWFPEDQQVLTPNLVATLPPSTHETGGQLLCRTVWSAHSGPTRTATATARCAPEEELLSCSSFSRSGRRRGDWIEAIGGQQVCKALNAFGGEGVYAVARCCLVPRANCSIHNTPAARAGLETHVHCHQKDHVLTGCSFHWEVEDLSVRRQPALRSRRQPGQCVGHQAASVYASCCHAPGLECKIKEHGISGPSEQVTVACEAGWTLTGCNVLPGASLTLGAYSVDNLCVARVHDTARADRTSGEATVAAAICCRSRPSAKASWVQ

B1: H1M495 (antibody, V domains shown)
VH: EVQLVESGGGLVQPGRSLRLSCAASGFTFDDYAMHWVRQAPGKGLEWVSGINWNSGSIGYADSVKGRFTISRDNAKHSLYLQMNSLRPEDTALYYCVKEVTTGYYYGMDVWGQGTTVTVSS
VL: DIQLTQSPSFLSASVGDRVTITCWASQGISSYLAWYQKKPGKAPNLLIYDASTLQSGVPSRFSGSGSGTEFTLTLSSLQPEDFATYYCQQLNIYPFTFGPGTKVDIK
notes: Hybridoma-derived chimeric antibody (human variable, mouse constant)
B2: H1H321P (antibody, V domains shown)
VH: QITLKESGPTLVKPTQTLTLTCTFSGFSLITSGVGVGWIRQPPGKALEWLALIYWNGDKRYSPSLKSRLTITKDTSKNQVVLTMTNMDPVDTATYYCAHRITETSYYFYYGMDVWGQGTTVTVSS
VL: not shown
notes: Fully human antibody cloned from B cells, made in CHO cells
B3: H1H334P (antibody, V domains shown)
VH: B2 VH with T15S, I30S, G57S, I101H, T102D, E103S, T104S
VL: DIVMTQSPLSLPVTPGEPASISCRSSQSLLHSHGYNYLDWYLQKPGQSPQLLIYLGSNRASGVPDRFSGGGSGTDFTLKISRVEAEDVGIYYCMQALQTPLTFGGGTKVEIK
notes: as for B2
B4: H1H320P (antibody, V domains shown)
VH: QVQLVQSGAEVKKPGASVKVSCKASGYTFTNYGISWVRQAPGQGLELMGWISGYNGNTNYAQELQARVTMTTDTSTSTAYMELRNLRSDDTAVYYCARDRVVVAAANYYFYSMDVWGQGTTVTVSS
VL: DVVMTQSPLSLSVTLGQPASISCRSSQSLVYSDGDTYLNWFQQRPGQSPRRLIYKVSNRDSGVPDRFSGSGSGTAFTLKISGVEAEDVGVYYCMQATHWPRTFGQGTKVEIK
notes: as for B2
B5: H1M300 (antibody, V domains shown)
VH: EMQLVESGGGLVQPGGSLRLSCAASGFTFSSHWMKWVRQAPGKGLEWVANINQDGSEKYYVDSVKGRFTISRDNAKNSLFLQMNSLRAEDTAVYYCARDIVLMVYDMDYYYYGMDVWGQGTTVTVSS
VL: not shown
notes: as for B1
B6: H1H318P (antibody, V domains shown)
VH: QVQLQESGPGLVKPSETLSLTCTVSGDSINTYYWSWFRQPPGKGLEWIGYIYYSGTTNYNPSLKSRVTISIDTPRNQFSLKLISVTAADTAVYYCARERITMIRGVTLYYYSYGMDVWGQGTTVTVSS
VL: DIQMTQSPSFLSASVGDRVTITCWASQDISSYLAWYQQKPGIAPKLLIYAASTLQSGVPSRFGGSGSGTEFTLTISSLQPEDFATYYCQQLNSYPRTFGQGTKVEIK
notes: as for B2
B7: H1H315P (antibody, V domains shown)
VH: QVQLVESGGGVVQPGRSLRLSCAASGFTFSSYGMHWVRQAPGKGLEWVAFIGFDGSNIYYGDSVRGRIIISRDNSENTLYLEMNSLRAEDTAVYYCAREKGLDWGQGTLVTVSS
VL: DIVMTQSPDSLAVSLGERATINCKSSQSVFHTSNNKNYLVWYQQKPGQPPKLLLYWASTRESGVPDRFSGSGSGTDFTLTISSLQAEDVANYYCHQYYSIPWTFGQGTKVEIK
notes: as for B2
B8: H1M498 (antibody, V domains shown)
VH: EVQLVESGGGLVKPGGSLRLSCAASGFTFSSYSMDWVRQAPGKGLEWVSSISSSSSYIYYADSVKGRFTISRDTAKNSLYLQMNSLRDEDTAVYYCAREGSSRLFDYWGQGTLVTVSS
VL: DIQMTQSPSTLSASVGDRVTITCRASQSISSWLAWYQQRPGKAPKLLIYKASSLEGGVPSRFSGSGSGTEFTLTISSLQPEDFATYYCQQYNSYWYTFGQGTKLEIK
notes: as for B1
B9: H1H317P (antibody, V domains shown)
VH: EVQLVESGGGLVQPGGSLRLSCAVSGFTLSSYDMHWVRQPTGKGLEWVSAIGSTGDTYYPGSVKGRFTISRENAKNSLYLQMNSLRAGDTAVYYCAREGWDVPFDFWGQGTLVTVSS
VL: AIQMTQSPSSLSASVGDRVTITCRASQDIRNDLGWYQQKPGKAPKLLIYAASSLQSGVPSRFSGSGSGTDFTLTISSLQPEDFATYYCLQDYNYPWTFGQGTKVEIK
notes: as for B2

Columns and labels:
Human PCSK9-myc-myc-his [1] = molecular target: T3, Human PCSK9-myc-myc-his (human, UniProt Q8NBP7 31-692); experiment: SPR, mAb captured, 25C
T3 construct: also called hPCSK9-mmh; hPCSK9
Experimental: (§1) Each antibody was captured at a flow rate of 4 μl/min for 90 sec on a goat anti-mouse IgG polyclonal antibody surface created through direct chemical coupling to a BIACORE™ chip to form a captured antibody surface.

[2] = molecular target: T4, mouse PCSK9, myc-myc-his tagged (mouse, UniProt Q80W65 35-694); experiment: ELISA, mAb coated, 1.2 nM antigen;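 further: antigen allowed to bind for 1 h at room temperature, then captured protein revealed with an HRP-linked polyclonal anti-myc antibody and read as optical density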
T4 construct: also called mPCSK9-mmh; mPCSK9
Text: (§2) After 1 hr binding at RT, the plate was washed and bound test protein detected using HRP-conjugated anti-myc polyclonal antibody (++=OD>1.0; +=OD 0.4-1.0; −=OD<0.4).

[3] = molecular target: Chimeric protein #2 (hPro-mCat-mC-term-mmh) (human; mouse, UniProt Q80W65 19-694); experiment: ELISA, mAb coated, 1.2 nM antigen;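 further: antigen allowed to bind for 1 h at room temperature, then captured protein revealed with an HRP-linked polyclonal anti-myc antibody and read as optical density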
Text: as §2

hPCSK9(D374Y)-mmh = molecular target: T5, hPCSK9(D374Y)-mmh (human, UniProt Q8NBP7 31-692); experiment: ELISA, mAb coated, 1.2 nM antigen;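 further: antigen allowed to bind for 1 h at room temperature, then captured protein revealed with an HRP-linked polyclonal anti-myc antibody and read as optical density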
T5 construct: also called hPCSK(D374Y)-mmh
Text: as §2

[4] = molecular target: T1, Chimeric protein #3 …; experiment: ELISA, mAb coated, 1.2 nM antigen;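 further: antigen allowed to bind for 1 h at room temperature, then captured protein revealed with an HRP-linked polyclonal anti-myc antibody and read as optical density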
Text: as §2

Human PCSK9-myc-myc-his [5] = molecular target: T3, Human PCSK9-myc-myc-his; experiment: ELISA, mAb coated, 1.2 nM antigen
Text: as §2

[6] = molecular target: T2, Chimeric protein #1 …; experiment: ELISA, mAb coated, 1.2 nM antigen
Text: as §2

Human PCSK9-myc-myc-his [7] = molecular target: T3, Human PCSK9-myc-myc-his; experiment: SPR, mAb captured, 37C
Experimental: as §1

Human PCSK9-myc-myc-his [8] = molecular target: T3, Human PCSK9-myc-myc-his; experiment: SPR, mAb captured, 37C; remark: listed apart in the source
Experimental: (§3) Each selected antibody was captured at a flowrate of 2 μl/min for 6 min on a goat anti-human IgG polyclonal antibody surface created through direct chemical coupling to a BIACORE™ chip to form a captured antibody surface.

Human PCSK9-myc-myc-his [9] = molecular target: T3, Human PCSK9-myc-myc-his; experiment: SPR, mAb captured, 25C; remark: listed apart in the source
Experimental: as §3

[10] = molecular target: T6, tagged rhesus monkey (Macaca mulata) PCSK9 (rhesus monkey (Macaca mulata), UniProt A8T666 31-692); experiment: SPR, 25C
T6 construct: also called mmPCSK9-mmh; mmPCSK9
T6 sequence (A8T666 31-692 limits assumed): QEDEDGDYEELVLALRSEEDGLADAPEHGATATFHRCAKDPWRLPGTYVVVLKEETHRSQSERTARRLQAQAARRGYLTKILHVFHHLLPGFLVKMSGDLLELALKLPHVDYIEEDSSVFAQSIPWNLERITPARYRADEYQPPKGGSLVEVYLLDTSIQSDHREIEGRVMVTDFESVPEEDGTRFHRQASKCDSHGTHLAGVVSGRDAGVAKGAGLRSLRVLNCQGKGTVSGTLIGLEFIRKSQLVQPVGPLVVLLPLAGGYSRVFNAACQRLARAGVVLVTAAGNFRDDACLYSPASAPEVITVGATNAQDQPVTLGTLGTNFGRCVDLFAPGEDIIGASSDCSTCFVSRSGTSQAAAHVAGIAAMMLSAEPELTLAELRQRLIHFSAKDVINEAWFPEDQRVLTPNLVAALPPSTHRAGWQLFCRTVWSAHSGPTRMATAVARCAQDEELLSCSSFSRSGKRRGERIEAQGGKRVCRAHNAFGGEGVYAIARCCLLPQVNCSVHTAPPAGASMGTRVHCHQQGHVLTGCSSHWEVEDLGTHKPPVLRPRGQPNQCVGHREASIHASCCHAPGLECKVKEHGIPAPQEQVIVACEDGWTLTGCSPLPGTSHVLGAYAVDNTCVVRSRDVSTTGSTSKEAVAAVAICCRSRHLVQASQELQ

Row | Binder | Kd (Human PCSK9-myc-myc-his [1]) [nM] | T1/2 (Human PCSK9-myc-myc-his [1]) [min] | OD [2] [od] | OD [3] [od] | OD (hPCSK9(D374Y)-mmh) [od] | OD [4] [od] | OD (Human PCSK9-myc-myc-his [5]) [od] | OD [6] [od] | Kd (Human PCSK9-myc-myc-his [7]) [nM] | T1/2 (Human PCSK9-myc-myc-his [7]) [min] | Kd (Human PCSK9-myc-myc-his [8]) [nM] | T1/2 (Human PCSK9-myc-myc-his [8]) [min] | Kd (Human PCSK9-myc-myc-his [9]) [nM] | T1/2 (Human PCSK9-myc-myc-his [9]) [min] | T1/2 [10] [min] | koff [10] [s⁻¹]
1 | B1 | 0.44 | 222 | < 0.4 | < 0.4 | > 1 | > 1 | > 1 | < 0.4 | 7.5 | 19 |  |  |  |  |  | 
2 | B2 |  |  |  |  |  |  |  |  |  |  | 3.36 | 23 | 0.865 | 106 |  | 
3 | B3 |  |  | < 0.4 | < 0.4 | > 1 | < 0.4 | > 1 | > 1 |  |  | 15.9 | 8 | 3.75 | 46 | 1 | 0.00806
4 | B4 |  |  | < 0.4 | > 1 | > 1 | < 0.4 | > 1 | < 0.4 |  |  | 1.93 | 8 | 0.771 | 28 | 36 | 0.000317
5 | B5 | 0.399 | 170 | < 0.4 | 0.4 to 1 | > 1 |  | > 1 | > 1 | 1.51 | 32 |  |  |  |  | 76 | 0.000152
6 | B6 |  |  | < 0.4 | < 0.4 | > 1 | < 0.4 | > 1 | > 1 |  |  | 1.69 | 28 | 0.972 | 59 | 3 | 0.00369
7 | B7 |  |  |  |  |  |  |  |  |  |  | 0.413 | 35 | 0.129 | 151 | 51 | 0.000229
8 | B8 | 6.4 | 30 | < 0.4 | < 0.4 | > 1 | 0.4 to 1 | > 1 | < 0.4 | 7.5 | 14 |  |  |  |  |  | 
9 | B9 |  |  |  |  |  |  |  |  |  |  | 18.6 | 70 | 30.4 | 137 |  | 
